Results on eight sequences are retold here after the Immune Epitope Database (IEDB).

Bounds are passed on as bounds.

One assay deals with HLA-A*23:01. Nature of the assay: IEDB peptide-MHC binding, purified MHC/competitive/fluorescence; filed as Kd, often an IC50 or EC50 that approximates it; ≥ and ≤ were set here for values at or beyond the usual limits of such assays. The note with it: source organism: Burkholderia pseudomallei S13.
The target in the next assay is HLA-B*15:42. The description is as above. The conditions noted are these: source organism: Burkholderia pseudomallei S13.
A further assay addresses HLA-B*45:06. Described as above. The conditions noted are these: source organism: Burkholderia pseudomallei S13.
Another assay concerns the target HLA-B*83:01. Described as above. The conditions noted are these: source organism: Burkholderia pseudomallei S13.
The target in a further assay is HLA-C*04:01. The assay is described as above. The note with it: source organism: Burkholderia pseudomallei S13.
In a further assay the target is HLA-A*02:01. Briefly: IEDB peptide-MHC binding, purified MHC/direct/fluorescence; filed as Kd, often an IC50 or EC50 that approximates it; ≥ and ≤ were set here for values at or beyond the usual limits of such assays.
The target in assay [1] is HLA-A*02:03. The assay is described as above. The conditions noted are these: source organism: Burkholderia mallei ATCC 23344.
The target in a further assay is HLA-A*02:11. The description is as above.
The next assay deals with HLA-A*02:12. Described as above.
The next assay addresses HLA-A*02:16. The description is as above.
The target in another assay is HLA-A*02:19. The assay is described as above.
For another assay, the target named is HLA-A*03:01. Described as above.
In a further assay the target is HLA-A*24:03. The description is as above. The conditions noted are these: source organism: Burkholderia mallei ATCC 23344.
The target of another assay is HLA-A*26:01. The assay is described as above.
A further assay addresses HLA-A*68:02. The assay is described as above.
For another assay, the target named is HLA-A*69:01. The assay is described as above.
The target of a further assay is HLA-B*15:01. The assay is described as above.
A further assay deals with HLA-B*18:01. Described as above.
The target in another assay is HLA-B*27:03. The description is as above.
A further assay deals with HLA-B*39:01. The description is as above.
For another assay, the target named is HLA-B*46:01. The assay is described as above.
For a further assay, the target named is HLA-B*51:01. Described as above.
Assay [2] has as its target HLA-B*73:01. Briefly: IEDB peptide-MHC binding, purified MHC/competitive/fluorescence; filed as Kd, often an IC50 or EC50 that approximates it; ≥ and ≤ were set here for values at or beyond the usual limits of such assays. The conditions noted are these: source organism: Escherichia coli O157:H7 str. Sakai.
For another assay, the target named is HLA-A*68:01. Briefly: IEDB peptide-MHC binding, purified MHC/competitive/radioactivity; ≥ and ≤ were set here for values at or beyond the usual limits of such assays. The note with it: source organism: Hepacivirus hominis.
The next assay deals with HLA-B*57:01. Nature of the assay: IEDB peptide-MHC binding, purified MHC/direct/fluorescence; filed as Kd, often an IC50 or EC50 that approximates it; ≥ and ≤ were set here for values at or beyond the usual limits of such assays.
The next assay addresses HLA-A*01:01. The assay is described as above. The note with it: source organism: Brucella abortus 2308.
A further assay deals with HLA-B*07:02. The assay is described as above. The conditions noted are these: source organism: Brucella abortus 2308.
The next assay deals with HLA-B*08:01. Described as above. The note with it: source organism: Brucella suis 1330.
The next assay addresses HLA-B*15:17. The description is as above. The conditions noted are these: source organism: Brucella abortus 2308.
For the next assay, the target named is HLA-B*27:05. Described as above. The conditions noted are these: source organism: Brucella abortus 2308.
Assay [3] concerns the target HLA-B*48:01. The description is as above. The note with it: source organism: Brucella abortus 2308.
The target of the next assay is HLA-B*58:01. The description is as above. The note with it: source organism: Brucella abortus 2308.
For assay [4], the target named is HLA-B*73:01. The description is as above. The conditions noted are these: source organism: Brucella suis 1330.
The target in assay [5] is HLA-A*02:03. Briefly: IEDB peptide-MHC binding, purified MHC/competitive/fluorescence; filed as Kd, often an IC50 or EC50 that approximates it; ≥ and ≤ were set here for values at or beyond the usual limits of such assays. The conditions noted are these: source organism: Brucella abortus S19.
The target in a further assay is HLA-A*11:01. The assay is described as above. The note with it: source organism: Brucella abortus S19.
For a further assay, the target named is HLA-A*26:03. The description is as above. The note with it: source organism: Brucella abortus S19.
The target in the next assay is HLA-A*31:01. Described as above. The note with it: source organism: Brucella abortus S19.
Assay [6] deals with HLA-B*48:01. The description is as above. The note with it: source organism: Mycobacterium tuberculosis variant bovis BCG str. Pasteur 1173P2.
In a further assay the target is HLA-A*24:02. Briefly: IEDB peptide-MHC binding, cellular MHC/competitive/fluorescence; ≥ and ≤ were set here for values at or beyond the usual limits of such assays. The conditions noted are these: source organism: Human herpesvirus 5 strain AD169.
Setting [7] is: source organism: Burkholderia mallei ATCC 23344.
Setting [8] is: source organism: Mycobacterium tuberculosis str. Haarlem.
[9] abbreviates: source organism: Brucella abortus 2308.

Take GFYLSGHLF: the Kd with HLA-A*23:01 was ≤ 0.0001 µM; with HLA-B*15:42, ≥ 5 µM; in the assay with HLA-B*45:06, ≥ 5 µM; with HLA-B*83:01, ≥ 5 µM; with HLA-C*04:01, ≥ 5 µM.

Turning to LARFPCNVI, the Kd in the assay with HLA-A*02:01 (setting [7]), with HLA-A*02:03 [1], in the assay with HLA-A*02:11 (setting [7]), with HLA-A*02:12 (setting [7]), with HLA-A*02:16 (setting [7]) and with HLA-A*02:19 (setting [7]) was ≥ 20 µM each time. In addition, the Kd with HLA-A*03:01 (setting [7]), in the assay with HLA-A*24:03, in the assay with HLA-A*26:01 (setting [7]), with HLA-A*68:02 (setting [7]), with HLA-A*69:01 (setting [7]) and with HLA-B*15:01 (setting [7]) was ≥ 20 µM in each case. The Kd with HLA-B*18:01 (setting [7]) was ≥ 20 µM; in the assay with HLA-B*27:03 (setting [7]), ≥ 20 µM; with HLA-B*39:01 (setting [7]) it was ≥ 20 µM; in the assay with HLA-B*46:01 (setting [7]), ≥ 20 µM; with HLA-B*51:01 (setting [7]) it was 0.606 µM.

As for NEWYVQPQA, the Kd with HLA-B*73:01 [2] came out at 0.0673 µM.

Regarding QLFTFSPRR, the concentration for half-maximal inhibition (IC50) in the assay with HLA-A*68:01 was 0.0026 µM.

On to RLGWRTLDF, for which the Kd with HLA-A*02:01 (setting [8]), in the assay with HLA-A*02:11 (setting [8]), in the assay with HLA-A*02:12 (setting [8]), in the assay with HLA-A*02:16 (setting [8]), in the assay with HLA-A*02:19 (setting [8]) and with HLA-A*03:01 (setting [8]) was ≥ 20 µM each time. Also, the Kd with HLA-A*26:01 (setting [8]), with HLA-B*18:01 (setting [8]), in the assay with HLA-B*27:03 (setting [8]), in the assay with HLA-B*39:01 (setting [8]), with HLA-B*46:01 (setting [8]) and in the assay with HLA-B*51:01 (setting [8]) was ≥ 20 µM each time. Further, the Kd with HLA-B*57:01 (setting [8]) is ≥ 20 µM.

For the sequence RMIESRMSK, the dissociation constant Kd is ≥ 20 µM with HLA-A*01:01; ≥ 20 µM with HLA-A*02:01 (setting [9]); 0.131 µM with HLA-A*03:01 (setting [9]); ≥ 20 µM with HLA-A*68:02 (setting [9]); ≥ 20 µM with HLA-A*69:01 (setting [9]); ≥ 20 µM with HLA-B*07:02. Further, the Kd in the assay with HLA-B*08:01 is ≥ 20 µM; with HLA-B*15:01 (setting [9]), 0.341 µM; with HLA-B*15:17, ≥ 20 µM; with HLA-B*18:01 (setting [9]), ≥ 20 µM; with HLA-B*27:05 it was 0.0525 µM; with HLA-B*39:01 (source organism: Brucella suis 1330), ≥ 20 µM. The Kd in the assay with HLA-B*48:01 [3] was ≥ 20 µM; with HLA-B*57:01 (setting [9]), ≥ 20 µM; in the assay with HLA-B*58:01 it was ≥ 20 µM; in the assay with HLA-B*73:01 [4] it was ≥ 20 µM; with HLA-A*02:03 [5], ≥ 20 µM; with HLA-A*11:01, 0.0055 µM. In addition, the dissociation constant Kd was ≥ 20 µM with HLA-A*26:03 and 0.0607 µM with HLA-A*31:01.

The sequence RMVIGGVAL showed a Kd with HLA-B*48:01 [6] of 0.0681 µM.

Regarding VYYTSAFVF, in the assay with HLA-A*24:02, the IC50 is 35 µM.
